Substitutions are numbered along the chain they refer to. Names and notes keep the numbering of the source. Values belong to the binder of their own block, whether it stands above or below them.
Experiments:
[1] = biological target: T1, rHuman EGF R/Fc Chimera, CF (R&D Systems Cat#344-ER) (human, UniProt P00533 25-645); test: MSD ECL multispot assay, antigen spotted on plate, Fab in solution; blank spot of this row 277
T1 construct: Bought recombinant protein; not shown: Fc of the bought chimera

[2] = biological target: T2, rHuman IGF-1 sR (insulin-like growth factor-1 soluble receptor), CF (R&D Systems Cat#391-GR) (human, UniProt P08069 31-932); test: as above
T2 construct: Bought recombinant soluble receptor

[3] = biological target: T3, rHuman P-Cadherin/Fc Chimera, CF (R&D Systems Cat#861-PC) (human, UniProt P22223 108-654); test: as above
T3 construct: Bought recombinant protein; not shown: Fc of the bought chimera

[4] = biological target: T4, Recombinant Human DLL4 (R&D Systems Cat#1506-D4/CF) (human, UniProt Q9NR61 27-524); test: as above
T4 construct: Bought recombinant protein; also called delta-like protein 4; rHuman DLL4

[5] = biological target: T5, rHuman HGF R/c-MET/Fc Chimera, CF (R&D Systems Cat#358-MT/CF) (human, UniProt P08581 25-932); test: as above
T5 construct: Bought recombinant protein; also called HGF R/Fc; not shown: Fc of the bought chimera
T5 sequence (P08581 25-932, change not shown): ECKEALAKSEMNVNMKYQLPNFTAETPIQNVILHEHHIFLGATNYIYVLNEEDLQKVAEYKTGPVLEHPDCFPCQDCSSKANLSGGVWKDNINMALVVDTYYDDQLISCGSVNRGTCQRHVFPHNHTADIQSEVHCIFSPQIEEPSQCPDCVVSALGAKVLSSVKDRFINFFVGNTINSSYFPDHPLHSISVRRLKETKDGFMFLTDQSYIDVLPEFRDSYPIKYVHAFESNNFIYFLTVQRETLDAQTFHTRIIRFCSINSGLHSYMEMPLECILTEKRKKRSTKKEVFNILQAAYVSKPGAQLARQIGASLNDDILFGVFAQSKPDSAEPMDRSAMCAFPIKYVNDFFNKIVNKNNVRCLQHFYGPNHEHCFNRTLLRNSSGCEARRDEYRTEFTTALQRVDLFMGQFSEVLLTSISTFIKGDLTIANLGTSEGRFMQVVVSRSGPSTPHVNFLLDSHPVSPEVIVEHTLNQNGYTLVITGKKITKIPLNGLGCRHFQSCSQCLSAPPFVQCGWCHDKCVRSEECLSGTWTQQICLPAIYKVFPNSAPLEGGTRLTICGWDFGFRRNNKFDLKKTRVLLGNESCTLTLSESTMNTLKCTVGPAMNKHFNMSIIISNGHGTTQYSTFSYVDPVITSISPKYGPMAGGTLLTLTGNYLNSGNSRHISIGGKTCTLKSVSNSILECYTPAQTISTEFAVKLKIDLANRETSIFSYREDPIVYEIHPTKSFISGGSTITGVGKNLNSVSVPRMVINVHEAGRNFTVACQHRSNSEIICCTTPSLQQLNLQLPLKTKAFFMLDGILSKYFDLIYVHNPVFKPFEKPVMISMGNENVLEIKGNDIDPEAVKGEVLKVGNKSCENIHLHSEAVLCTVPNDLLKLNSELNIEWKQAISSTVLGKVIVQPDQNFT

[6] = biological target: T6, rHuman ErbB2/Fc Chimera, CF (R&D Systems Cat#1129-ER) (human, UniProt P04626 23-652); test: as above
T6 construct: Bought recombinant protein; not shown: Fc of the bought chimera

[7] = biological target: T1, rHuman EGF R/Fc Chimera, CF (R&D …); test: MSD ECL multispot assay, antigen spotted on plate, Fab in solution; blank spot of this row 282
[8] = biological target: T2, rHuman IGF-1 sR (insulin-like growth …); test: as above
[9] = biological target: T3, rHuman P-Cadherin/Fc Chimera, CF (R&D …); test: as above
[10] = biological target: T4, Recombinant Human DLL4 (R&D Systems …); test: as above
[11] = biological target: T5, rHuman HGF R/c-MET/Fc Chimera, CF (R&D …); test: as above
[12] = biological target: T6, rHuman ErbB2/Fc Chimera, CF (R&D …); test: as above
[13] = biological target: T1, rHuman EGF R/Fc Chimera, CF (R&D …); test: MSD ECL multispot assay, antigen spotted on plate, Fab in solution; blank spot of this row 274
[14] = biological target: T2, rHuman IGF-1 sR (insulin-like growth …); test: as above
[15] = biological target: T3, rHuman P-Cadherin/Fc Chimera, CF (R&D …); test: as above
[16] = biological target: T4, Recombinant Human DLL4 (R&D Systems …); test: as above
[17] = biological target: T5, rHuman HGF R/c-MET/Fc Chimera, CF (R&D …); test: as above
[18] = biological target: T6, rHuman ErbB2/Fc Chimera, CF (R&D …); test: as above
[19] = biological target: T7, rHuman CD44/Fc Chimera, CF (R&D Systems Cat#3660-CD) (human, UniProt P16070 21-220); test: MSD ECL multispot assay, antigen spotted on plate, Fab in solution; blank spot of this row 278
T7 construct: Bought recombinant protein; not shown: Fc of the bought chimera

[20] = biological target: T1, rHuman EGF R/Fc Chimera, CF (R&D …); test: as above
[21] = biological target: T2, rHuman IGF-1 sR (insulin-like growth …); test: as above
[22] = biological target: T3, rHuman P-Cadherin/Fc Chimera, CF (R&D …); test: as above
[23] = biological target: T4, Recombinant Human DLL4 (R&D Systems …); test: as above
[24] = biological target: T5, rHuman HGF R/c-MET/Fc Chimera, CF (R&D …); test: as above
[25] = biological target: T8, rHuman Erythropoietin R/Fc Chimera, CF (R&D Systems Cat#963-ER) (human, UniProt P19235 25-250); test: as above
T8 construct: Bought recombinant protein; also called EPO R; EPO R/Fc; not shown: Fc of the bought chimera
T8 sequence (looked up): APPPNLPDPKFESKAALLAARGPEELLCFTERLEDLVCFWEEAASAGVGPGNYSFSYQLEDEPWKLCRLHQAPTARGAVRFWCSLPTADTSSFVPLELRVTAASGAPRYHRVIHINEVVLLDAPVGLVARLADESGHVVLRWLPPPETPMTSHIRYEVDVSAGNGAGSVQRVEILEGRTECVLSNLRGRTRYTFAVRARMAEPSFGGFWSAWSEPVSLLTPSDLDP

[26] = biological target: T6, rHuman ErbB2/Fc Chimera, CF (R&D …); test: as above
[27] = biological target: T9, rHuman Notch-1/Fc Chimera, CF (R&D Systems Cat#3647-TK) (human, UniProt P46531 19-526); test: as above
T9 construct: Bought recombinant protein; not shown: Fc of the bought chimera

[28] = biological target: T7, rHuman CD44/Fc Chimera, CF (R&D Systems …); test: MSD ECL multispot assay, antigen spotted on plate, Fab in solution; blank spot of this row 317
[29] = biological target: T1, rHuman EGF R/Fc Chimera, CF (R&D …); test: as above
[30] = biological target: T2, rHuman IGF-1 sR (insulin-like growth …); test: as above
[31] = biological target: T3, rHuman P-Cadherin/Fc Chimera, CF (R&D …); test: as above
[32] = biological target: T5, rHuman HGF R/c-MET/Fc Chimera, CF (R&D …); test: as above
[33] = biological target: T8, rHuman Erythropoietin R/Fc Chimera, CF …; test: as above
[34] = biological target: T6, rHuman ErbB2/Fc Chimera, CF (R&D …); test: as above
[35] = biological target: T9, rHuman Notch-1/Fc Chimera, CF (R&D …); test: as above

ECL signal [1]: 307
ECL signal [2]: 221
ECL signal [3]: 299
ECL signal [4]: 165000
ECL signal [5]: 267
ECL signal [6]: 311
ECL signal [7]: 290
ECL signal [8]: 249
ECL signal [9]: 302
ECL signal [10]: 165000
ECL signal [11]: 321
ECL signal [12]: 259
ECL signal [13]: 266
ECL signal [14]: 305
ECL signal [15]: 283
ECL signal [16]: 164000
ECL signal [17]: 339
ECL signal [18]: 236
B1: Fab VH1-46_IGHD6-6*01_IGHJ1*01 S102A/S103P/S104F/H111F (APFF) & L6_IGKJ1*01 (Fab, V domains shown)
VH: QVQLVQSGAEVKKPGASVKVSCKASGYTFTSYYMHWVRQAPGQGLEWMGIINPSGGSTSYAQKFQGRVTMTRDTSTSTVYMELSSLRSEDTAVYYCAREEYAPFSAEYFQFWGQGTLVTVSS
VL: not shown
notes: Fab; also called APFF / parent; H:APFF & L:wt

ECL signal [19]: 290
ECL signal [20]: 295
ECL signal [21]: 308
ECL signal [22]: 387
ECL signal [23]: 54100
ECL signal [24]: 290
ECL signal [25]: 424
ECL signal [26]: 237
ECL signal [27]: 231
B2: Fab VH1-46_IGHD6-6*01_IGHJ1*01 S102A/S103P/S104F/H111F (APFF) & L6_IGKJ1*01 S92T (Fab, V domains shown)
VH: B1 VH
VL: EIVLTQSPATLSLSPGERATLSCRASQSVSSYLAWYQQKPGQAPRLLIYDASNRATGIPARFSGSGSGTDFTLTISSLEPEDFAVYYCQQRTNWPPWTFGQGTKVEIKR
notes: Fab; also called APFF / S92T

ECL signal [28]: 248
ECL signal [29]: 319
ECL signal [30]: 244
ECL signal [31]: 373
ECL signal [32]: 230
ECL signal [33]: 371
ECL signal [34]: 188
ECL signal [35]: 262
B3: Fab VH1-46_IGHD6-6*01_IGHJ1*01 S102A/S103P/S104F/H111F (APFF) & L6_IGKJ1*01 S92V (Fab, V domains shown)
VH: B1 VH
VL: B2 VL with T92V
notes: Fab; also called APFF / S92V

— US20120316071A1 (published 2012)
